Assay results as given in publication PMC8654239, “The neutrophil protein CD177 is a novel PDPN receptor that regulates human cancer-associated fibroblast physiology” (PLoS ONE, 2021).
Values belong to the molecule of their own block, whether it stands above or below them.

Key:
[1] = biological target: PDPN ectodomain, monomeric, Avi-tagged, site-specifically biotinylated (Fc tag removed) (human) (UniProt Q86YL7)
[2] = biological target: CD177 recombinant ectodomain, Fc-tagged (human) (UniProt Q8N6Q3); test: SPR; CLEC-2 or CD177 ectodomains immobilised by amine coupling, 300-400 resonance units; Avi-tagged monomeric PDPN ectodomain as analyte; equilibrium fit for CD177, Langmuir model for CLEC-2
CD177 recombinant ectodomain, Fc-tagged (human), sequence (Q8N6Q3 22-408): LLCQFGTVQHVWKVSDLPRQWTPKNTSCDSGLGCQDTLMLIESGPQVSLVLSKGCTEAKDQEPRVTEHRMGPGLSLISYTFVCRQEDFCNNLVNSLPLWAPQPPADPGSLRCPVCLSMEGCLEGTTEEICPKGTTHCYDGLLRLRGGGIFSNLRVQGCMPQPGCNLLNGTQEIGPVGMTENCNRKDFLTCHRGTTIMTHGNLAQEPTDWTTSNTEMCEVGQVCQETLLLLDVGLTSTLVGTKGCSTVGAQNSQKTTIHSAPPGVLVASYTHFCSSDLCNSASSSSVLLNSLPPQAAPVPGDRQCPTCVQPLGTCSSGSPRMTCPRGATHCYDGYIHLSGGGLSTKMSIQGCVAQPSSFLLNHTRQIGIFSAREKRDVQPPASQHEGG

[3] = biological target: T1, CLEC-2 recombinant ectodomain, Fc-tagged (human, UniProt Q9P126 55-229); test: as above; conditions: both partners purified
T1 construct: C-type lectin receptor CLEC-2 (CLEC1B), human, ectodomain; The methods describe a general pRK5 vector with a C-terminal human Fc tag; CLEC-2 is a type II membrane protein, so the real end of the Fc may differ; also called Clec1b; recombinant human CLEC-2
T1 sequence (Q9P126 55-229): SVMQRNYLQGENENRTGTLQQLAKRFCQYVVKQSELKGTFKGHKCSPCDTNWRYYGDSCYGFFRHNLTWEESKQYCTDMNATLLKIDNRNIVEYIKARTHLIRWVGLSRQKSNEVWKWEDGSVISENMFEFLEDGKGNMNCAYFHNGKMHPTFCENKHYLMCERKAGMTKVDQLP

[4] = biological target: T1, CLEC-2 recombinant ectodomain, Fc-tagged; test: SPR; CLEC-2 or CD177 ectodomains immobilised by amine coupling on GLC (Proteon XPR36) or CM5 (Biacore 3000) chips; Avi-Fc-tagged PDPN as soluble analyte at the indicated concentrations; PBS with 0.01% Tween-20 (Proteon) or HBS-P pH 7.4 (Biacore); conditions: both partners purified

- inhibition of CAF contractility (gel contraction assay) by recombinant CD177 [1]: 20%
Molecule: CD177 recombinant ectodomain, Fc-tagged (from UniProt Q8N6Q3 22-408) (Fc fusion)

- Kd [2]: 3300 nM
- Kd [3]: 210 ± 0.3 nM
B1: PDPN ectodomain, monomeric, Avi-tagged, site-specifically biotinylated (Fc tag removed) (domain or fragment, human, UniProt Q86YL7 23-131, looked up)
chain: ASTGQPEDDTETTGLEGGVAMPGAEDDVVTPGTSEDRYKSGLTTLVATSVNSVTGIRIEDLPTSESTVHAQEQSPSATASNVATSHSTEKVDGDTQTTVEKDGLSTVTL
modifications: biotin on the Avi tag (site-specific, in vitro, BirA)
notes: podoplanin (PDPN), human, ectodomain; the methods describe biotinylation of the Avi-tagged product after removal of the Fc; Also used here as the PDPN of the functional rows (there PDPN is endogenous on fibroblasts); also called podoplanin; gp38; source: mammalian cells, purified; biotinylated in vitro with BirA; not shown: Fc (human IgG1), C-terminal, cleaved

- binding result [4]: binds
B2: PDPN ectodomain, Avi-Fc-tagged (Fc fusion, human, UniProt Q86YL7 23-131, looked up)
chain: B1 chain
notes: podoplanin (PDPN), human, ectodomain; pRK5 vector with C-terminal human IgG1 Fc; also called Avi-Fc-tagged PDPN; AviFc-tagged PDPN; source: mammalian cells, purified; not shown: Fc (human IgG1), C-terminal, kept
